Source: patent US20260242419A1, “A CYCLIC PEPTIDE FOR TRAPPING INTERLEUKIN-1 BETA” (Merck Sharp & Dohme LLC, priority 2023, published 2026)
Starred links: 1 amine or outer side, 2 acyl side, 3 side chain; linkers in the order of their positions; H or OH if unused. Non-standard residues stand in square brackets, D forms with d. SbOHPhe4CONH2 = (2S,3S)-2-amino-3-(4-carbamoylphenyl)-3-hydroxypropanoic acid, NC(=O)c1ccc([C@H](O[*:3])[C@H](N[*:1])C(=O)[*:2])cc1; TyrEtNAc = (2S)-3-[4-(2-acetamidoethoxy)phenyl]-2-amino-propanoic acid, CC(=O)NCCOc1ccc(C[C@H](N[*:1])C(=O)[*:2])cc1; alThrOEt = O-ethyl-L-allothreonine, CCO[C@@H](C)[C@H](N[*:1])C(=O)[*:2]; ThrOEt = O-ethyl-L-threonine, CCO[C@H](C)[C@H](N[*:1])C(=O)[*:2]; dPro(4R-(4-pyridylmethyl)) = O=C(O)[C@H]1C[C@@H](Cc2ccncc2)CN1; Trp(βS-Me,4-F) = C[C@@H](c1c[nH]c2cccc(F)c12)[C@H](N)C(=O)O; Bip(4'-CONH2) = NC(=O)c1ccc(-c2ccc(C[C@H](N)C(=O)O)cc2)cc1; dPro(3S-(4-F-Bn)) = O=C(O)[C@@H]1NCC[C@@H]1Cc1ccc(F)cc1; Ala(pyrimidin-5-yl) = N[C@@H](Cc1cncnc1)C(=O)O; Phe(4-CONH2) = NC(=O)c1ccc(C[C@H](N)C(=O)O)cc1; Pro(cis-4-F) = O=C(O)[C@@H]1C[C@H](F)CN1; d(αMeD) = C[C@@](N)(CC(=O)O)C(=O)O; 4Pal = N[C@@H](Cc1ccncc1)C(=O)O; NMeDab = CN[C@@H](CCN)C(=O)O; Dab = NCC[C@H](N)C(=O)O; Aib = CC(C)(N)C(=O)O

B1: SEQ ID NO 383 (peptide)
peptide: cyclo([TyrEtNAc][4Pal][SbOHPhe4CONH2]G[Pro(cis-4-F)][Trp(βS-Me,4-F)][Aib]SW[Aib][Ala(pyrimidin-5-yl)]Q[NMeDab]G[dPro(4R-(4-pyridylmethyl))])
SMILES: CC(=O)NCCOc1ccc(C[C@@H]2NC(=O)[C@H]3C[C@@H](Cc4ccncc4)CN3C(=O)CNC(=O)[C@H](CCN)N(C)C(=O)[C@H](CCC(N)=O)NC(=O)[C@H](Cc3cncnc3)NC(=O)C(C)(C)NC(=O)[C@H](Cc3c[nH]c4ccccc34)NC(=O)[C@H](CO)NC(=O)C(C)(C)NC(=O)[C@H]([C@@H](C)c3c[nH]c4cccc(F)c34)NC(=O)[C@@H]3C[C@H](F)CN3C(=O)CNC(=O)[C@H]([C@@H](O)c3ccc(C(N)=O)cc3)NC(=O)[C@H](Cc3ccncc3)NC2=O)cc1
B2: SEQ ID NO 382 (peptide)
peptide: cyclo([TyrEtNAc][4Pal][Phe(4-CONH2)]G[Pro(cis-4-F)][Trp(βS-Me,4-F)][Aib]SW[Aib][ThrOEt]Q[NMeDab]G[dPro(4R-(4-pyridylmethyl))])
SMILES: CCO[C@H](C)[C@@H]1NC(=O)C(C)(C)NC(=O)[C@H](Cc2c[nH]c3ccccc23)NC(=O)[C@H](CO)NC(=O)C(C)(C)NC(=O)[C@H]([C@@H](C)c2c[nH]c3cccc(F)c23)NC(=O)[C@@H]2C[C@H](F)CN2C(=O)CNC(=O)[C@H](Cc2ccc(C(N)=O)cc2)NC(=O)[C@H](Cc2ccncc2)NC(=O)[C@H](Cc2ccc(OCCNC(C)=O)cc2)NC(=O)[C@H]2C[C@@H](Cc3ccncc3)CN2C(=O)CNC(=O)[C@H](CCN)N(C)C(=O)[C@H](CCC(N)=O)NC1=O
B3: SEQ ID NO 381 (peptide)
peptide: cyclo([TyrEtNAc][4Pal][Phe(4-CONH2)]G[Pro(cis-4-F)][Trp(βS-Me,4-F)][Aib]SW[Aib][alThrOEt]Q[NMeDab]G[dPro(4R-(4-pyridylmethyl))])
SMILES: CCO[C@@H](C)[C@@H]1NC(=O)C(C)(C)NC(=O)[C@H](Cc2c[nH]c3ccccc23)NC(=O)[C@H](CO)NC(=O)C(C)(C)NC(=O)[C@H]([C@@H](C)c2c[nH]c3cccc(F)c23)NC(=O)[C@@H]2C[C@H](F)CN2C(=O)CNC(=O)[C@H](Cc2ccc(C(N)=O)cc2)NC(=O)[C@H](Cc2ccncc2)NC(=O)[C@H](Cc2ccc(OCCNC(C)=O)cc2)NC(=O)[C@H]2C[C@@H](Cc3ccncc3)CN2C(=O)CNC(=O)[C@H](CCN)N(C)C(=O)[C@H](CCC(N)=O)NC1=O
B4: SEQ ID NO 380 (peptide)
peptide: cyclo([Bip(4'-CONH2)][4Pal][Phe(4-CONH2)]G[Pro(cis-4-F)][Trp(βS-Me,4-F)][Aib]SW[d(αMeD)][Ala(pyrimidin-5-yl)]Q[Dab]G[dPro(3S-(4-F-Bn))])
SMILES: C[C@@H](c1c[nH]c2cccc(F)c12)[C@@H]1NC(=O)[C@@H]2C[C@H](F)CN2C(=O)CNC(=O)[C@H](Cc2ccc(C(N)=O)cc2)NC(=O)[C@H](Cc2ccncc2)NC(=O)[C@H](Cc2ccc(-c3ccc(C(N)=O)cc3)cc2)NC(=O)[C@H]2[C@@H](Cc3ccc(F)cc3)CCN2C(=O)CNC(=O)[C@H](CCN)NC(=O)[C@H](CCC(N)=O)NC(=O)[C@H](Cc2cncnc2)NC(=O)[C@@](C)(CC(=O)O)NC(=O)[C@H](Cc2c[nH]c3ccccc23)NC(=O)[C@H](CO)NC(=O)C(C)(C)NC1=O

These binders were tested against Recombinant human IL-1β (BioLegend 579404) (human, UniProt P01584 117-269) (assay: cell-based or functional assay).

B1 and B2 are within 1.5-fold of each other in “MRC5 IC50” value: 0.042 nM for the first, 0.048 nM for the second.

Compared with B3, B4 is 2.3-fold lower in “MRC5 IC50” value: 0.041 nM for the first, 0.018 nM for the second.

For cyclo([TyrEtNAc][4Pal][Phe(4-CONH2)]G[Pro(cis-4-F)][Trp(βS-Me,4-F)][Aib]SW[Aib][Ala(pyrimidin-5-yl)]Q[Dab]G[dPro(4R-(4-pyridylmethyl))]) [SEQ ID NO 384], the “MRC5 IC50” value was 0.086 nM.
